# Read-outs that look alike come from different tables or passages of the source. Square brackets hold non-standard residues; d marks the D form. * marks the point of attachment. Phe(4-I) = N[C@@H](Cc1ccc(I)cc1)C(=O)O; dPhe(4-I) = N[C@H](Cc1ccc(I)cc1)C(=O)O; d2Nal = N[C@H](Cc1ccc2ccccc2c1)C(=O)O; Bta = N[C@@H](Cc1csc2ccccc12)C(=O)O; Tic = O=C(O)[C@@H]1Cc2ccccc2CN1; dTic = O=C(O)[C@H]1Cc2ccccc2CN1; For = O=C*
# B1: SKY5-148, For-DTic-(pI)Phe-DArg-DHis-NH2 (peptide)
# peptide: For-[dTic][Phe(4-I)][dR][dH]-NH2
# SMILES: N=C(N)NCCC[C@@H](NC(=O)[C@H](Cc1ccc(I)cc1)NC(=O)[C@H]1Cc2ccccc2CN1C=O)C(=O)N[C@H](Cc1c[nH]cn1)C(N)=O
# B2: SKY5-121, Ac-DTrp-DArg-Phe-DHis-NH2 (peptide)
# peptide: Ac-[dW][dR]F[dH]-NH2
# SMILES: CC(=O)N[C@H](Cc1c[nH]c2ccccc12)C(=O)N[C@H](CCCNC(=N)N)C(=O)N[C@@H](Cc1ccccc1)C(=O)N[C@H](Cc1c[nH]cn1)C(N)=O
# B3: SKY5-146-7, Ac-His-Arg-(pI)DPhe-Trp-NH2 (peptide)
# peptide: Ac-HR[dPhe(4-I)]W-NH2
# SMILES: CC(=O)N[C@@H](Cc1c[nH]cn1)C(=O)N[C@@H](CCCNC(=N)N)C(=O)N[C@H](Cc1ccc(I)cc1)C(=O)N[C@@H](Cc1c[nH]c2ccccc12)C(N)=O
# B4: SKY5-142-A, For-DPhe-(pI)Phe-DArg-DHis-NH2 (peptide)
# peptide: For-[dF][Phe(4-I)][dR][dH]-NH2
# SMILES: N=C(N)NCCC[C@@H](NC(=O)[C@H](Cc1ccc(I)cc1)NC(=O)[C@@H](Cc1ccccc1)NC=O)C(=O)N[C@H](Cc1c[nH]cn1)C(N)=O
# B5: SKY4-48-26, Ac-Arg-Arg-(pI)DPhe-Phe-NH2 (peptide)
# peptide: Ac-RR[dPhe(4-I)]F-NH2
# SMILES: CC(=O)N[C@@H](CCCNC(=N)N)C(=O)N[C@@H](CCCNC(=N)N)C(=O)N[C@H](Cc1ccc(I)cc1)C(=O)N[C@@H](Cc1ccccc1)C(N)=O
# Legend:
# [1] = molecular target: T1, mouse melanocortin-4 receptor (mouse, UniProt P56450 1-332); experiment: cell-based or functional assay
# [2] = molecular target: T1, mouse melanocortin-4 receptor; experiment: cell-based or functional assay; remark: listed apart in the source
# [3] = molecular target: T2, mouse melanocortin-3 receptor (mouse, UniProt P33033 1-323); experiment: cell-based or functional assay
# [4] = molecular target: T1, mouse melanocortin-4 receptor; experiment: cell-based or functional assay; remark: listed apart in the source
# [5] = molecular target: T2, mouse melanocortin-3 receptor; experiment: cell-based or functional assay; remark: listed apart in the source
# [6] = molecular target: T3, mouse melanocortin-5 receptor (mouse, UniProt P41149 1-325); experiment: cell-based or functional assay
# [7] = molecular target: T4, mouse melanocortin-1 receptor (mouse, UniProt Q01727 1-315); experiment: cell-based or functional assay
# [8] = molecular target: T3, mouse melanocortin-5 receptor; experiment: cell-based or functional assay; remark: listed apart in the source
# [9] = molecular target: T4, mouse melanocortin-1 receptor; experiment: cell-based or functional assay; remark: listed apart in the source
# [10] = molecular target: T2, mouse melanocortin-3 receptor; experiment: cell-based or functional assay; remark: listed apart in the source
# [11] = molecular target: T3, mouse melanocortin-5 receptor; experiment: cell-based or functional assay; remark: listed apart in the source
# [12] = molecular target: T2, mouse melanocortin-3 receptor; experiment: 125I-NDP-MSH competitive displacement, HEK293 cells stably expressing mMC3R; negative = more potent than control
# Source text: (§1) A typical experiment utilized a 12-well format.
# [13] = molecular target: T1, mouse melanocortin-4 receptor; experiment: 125I-NDP-MSH competitive displacement, HEK293 cells stably expressing mMC4R; negative = more potent than control
# Source text: as §1
# [14] = molecular target: T2, mouse melanocortin-3 receptor; experiment: 125I-NDP-MSH competitive displacement, HEK293 cells stably expressing mMC3R
# Source text: as §1
# T2 sequence (P33033 whole entry): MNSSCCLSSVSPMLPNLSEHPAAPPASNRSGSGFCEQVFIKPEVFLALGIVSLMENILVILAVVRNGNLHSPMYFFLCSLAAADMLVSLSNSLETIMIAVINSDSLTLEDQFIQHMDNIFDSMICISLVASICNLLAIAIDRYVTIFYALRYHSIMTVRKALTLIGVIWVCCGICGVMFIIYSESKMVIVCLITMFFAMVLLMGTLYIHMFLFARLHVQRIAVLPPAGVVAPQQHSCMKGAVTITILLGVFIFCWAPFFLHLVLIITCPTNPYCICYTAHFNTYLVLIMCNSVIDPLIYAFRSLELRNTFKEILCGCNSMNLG
# T1 sequence (P56450 whole entry): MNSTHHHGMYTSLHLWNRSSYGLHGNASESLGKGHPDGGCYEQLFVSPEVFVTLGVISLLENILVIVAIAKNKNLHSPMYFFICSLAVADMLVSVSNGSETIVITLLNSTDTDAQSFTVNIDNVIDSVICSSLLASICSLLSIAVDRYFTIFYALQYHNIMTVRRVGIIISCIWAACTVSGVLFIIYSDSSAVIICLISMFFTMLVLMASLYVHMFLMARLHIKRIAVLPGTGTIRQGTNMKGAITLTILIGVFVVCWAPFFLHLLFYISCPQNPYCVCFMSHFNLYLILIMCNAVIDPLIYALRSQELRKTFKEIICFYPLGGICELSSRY
# T3 sequence (P41149 whole entry): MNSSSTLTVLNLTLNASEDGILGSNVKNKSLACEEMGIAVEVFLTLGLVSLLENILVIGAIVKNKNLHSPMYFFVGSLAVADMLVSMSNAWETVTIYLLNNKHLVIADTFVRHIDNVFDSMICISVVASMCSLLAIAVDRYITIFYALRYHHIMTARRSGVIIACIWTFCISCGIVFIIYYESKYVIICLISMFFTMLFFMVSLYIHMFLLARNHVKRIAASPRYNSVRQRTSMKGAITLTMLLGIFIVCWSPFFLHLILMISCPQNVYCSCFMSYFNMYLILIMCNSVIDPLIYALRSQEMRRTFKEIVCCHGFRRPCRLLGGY
# T4 sequence (Q01727 whole entry): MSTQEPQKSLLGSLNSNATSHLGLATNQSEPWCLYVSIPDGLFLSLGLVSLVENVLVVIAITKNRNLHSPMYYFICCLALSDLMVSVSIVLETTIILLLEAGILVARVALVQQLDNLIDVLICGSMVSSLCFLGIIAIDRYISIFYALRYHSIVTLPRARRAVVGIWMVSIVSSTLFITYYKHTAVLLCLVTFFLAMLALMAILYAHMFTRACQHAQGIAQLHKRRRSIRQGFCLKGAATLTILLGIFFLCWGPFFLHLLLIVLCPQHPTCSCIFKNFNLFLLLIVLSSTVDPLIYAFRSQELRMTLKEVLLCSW
binder,measurement,setting,value
B1,Antagonist Ki,[1],> 3.1 µM
same,"Agonist, % of NDP-MSH maximal response",[2],71 % @ 100 µM
same,pA2 (antagonist),[2],5.4 pA2
same,pA2 (antagonist),[3],6.8 pA2
"Ac-[Bta]R[dPhe(4-I)][d2Nal]-NH2 [SKY4-48-45, Ac-3Bal-Arg-(pI)DPhe-DNal(2')-NH2]","Agonist, % of NDP-MSH maximal response",[4],38 % @ 100 µM
same,"Agonist, % of NDP-MSH maximal response",[5],34 % @ 100 µM
same,"Agonist, % of NDP-MSH maximal response",[6],41 % @ 100 µM
same,"Agonist, % of NDP-MSH maximal response",[7],36 % @ 100 µM
"Ac-HR[dPhe(4-I)][Tic]-NH2 [SKY6-24-2, Ac-His-Arg-(pI)DPhe-Tic-NH2]",fold increase in agonist potency against SKY5-146-7,[8],40 fold
same,fold increase in agonist potency against SKY5-146-7,[9],380 fold
"Ac-SYSMEHRFWGKPV-NH2 [SKY2-125-5, (Arg7, Phe8) α-MSH, Ac-Ser-Tyr-Ser-Met-Glu-His-Arg-Phe-Trp-Gly-Lys-Pro-Val-NH2]",fold decreased agonist potency against α-MSH,[10],45000 fold
B2,"Agonist, % of NDP-MSH maximal response",[11],29 % @ 100 µM
B3,"Agonist, % of NDP-MSH maximal response",[2],29 % @ 100 µM
same,pA2 (antagonist),[2],6 pA2
B4,Antagonist Ki,[1],> 3.1 µM
same,"Agonist, % of NDP-MSH maximal response",[2],47 % @ 100 µM
same,pA2 (antagonist),[3],6.7 pA2
"Ac-RR[dPhe(4-I)][Bta]-NH2 [SKY4-48-10, Ac-Arg-Arg-(pI)DPhe-3Bal-NH2]",Fold Diff. (IC50 against SKY4-48-1),[12],-52 fold
same,Fold Diff. (IC50 against SKY4-48-1),[13],1 fold
same,"Agonist, % of NDP-MSH maximal response",[4],24 % @ 100 µM
"Ac-HR[dPhe(4-I)][Bta]-NH2 [SKY4-48-11, Ac-His-Arg-(pI)DPhe-3Bal-NH2]",Fold Diff. (IC50 against SKY4-48-1),[12],-15 fold
same,Fold Diff. (IC50 against SKY4-48-1),[13],2 fold
same,"Agonist, % of NDP-MSH maximal response",[4],47 % @ 100 µM
B5,Fold Diff. (IC50 against SKY4-48-1),[12],-8 fold
same,Fold Diff. (IC50 against SKY4-48-1),[13],4 fold
"Ac-FR[dPhe(4-I)][Bta]-NH2 [SKY4-48-15, Ac-Phe-Arg-(pI)DPhe-3Bal-NH2]",Fold Diff. (IC50 against SKY4-48-1),[12],-9 fold
same,Fold Diff. (IC50 against SKY4-48-1),[13],7 fold
same,IC50,[14],5.35 µM

# From patent US20170342107A1 (REGENTS OF THE UNIVERSITY OF MINNESOTA, published 2017)
